Measurements taken from publication PMC11343739.

What was measured:
[1] = WB of endogenous EP300, 786-O and Caki-1; conditions: glycan lost; control: untreated
[2] = CHX chase, WB, 786-O cells; conditions: glycan lost; control: Flag-EP300-WT
[3] = anti-Flag WB of cell fractions; conditions: glycan lost; control: Flag-EP300-WT
[4] = nuclear/cytoplasmic fractionation WB and IF; conditions: glycan lost; control: Flag-EP300-WT

Substance | expression_or_secretion [1] | degradation_or_half_life [2] | expression_or_secretion [3] | localisation_or_trafficking [4]
EP300: OSMI-1 | decreases |  |  | 
EP300: S900A |  | decreases | changes | no change
